Assay results taken from patent US20230025280A1, “PH RESPONSIVE COMPOSITIONS, FORMULATIONS, AND METHODS OF IMAGING A TUMOR” (ONCONANO MEDICINE, INC, priority 2019, published 2023).
“And” between values parts separate entries of the source, which are not always exact repeats. Identical values can stand only once.

Experiment: Phase 1 (1a/1b) pharmacokinetics: plasma concentrations after single IV dose (validated direct fluorescence reader assay), noncompartmental analysis
Assay type: in vivo, human
Conditions: Phase 1a
From the text: Phase 1 is a single-Principal Investigator, non-randomized, open-label, single-arm, cross-sectional study to evaluate the safety, PK profile, and imaging feasibility of Compound 1 in patients with solid cancers who require surgical excision. The main purpose of this study was to investigate the safety, PK, and feasibility of Compound 1 as an intra-operative optical imaging agent to detect tumors and metastatic lymph nodes in solid cancers. The study was intended to investigate the optimal dose range of Compound 1 for an adequate TBR and CNR of fluorescence obtained intraoperatively at 24 (±8) hours post dosing and with ex vivo specimens using ICG compatible cameras and imaging devices.
Phase 1 enrolled 30 patients with solid cancers (HNSCC, breast cancer, esophageal cancer, or colorectal cancer) who have a biopsy-confirmed diagnosis of respective tumor types and are scheduled to undergo surgical resection of the tumor. The study design included a standard 3+3 design for the dose-escalation portion (Phase 1a; N=18 maximum) followed by a dose-expansion portion (Phase 1b; N=15). All patients received a single I.V. dose of Compound 1, followed by routine surgery approximately 24 hours after infusion of Compound 1.
Phase 1a was a dose-finding study performed in 5 cohorts of 3 patients each. The dose levels evaluated were […], and 1.2 mg/kg, in this sequence. Inter-cohort dose escalation took place after the last patient in the previous cohort completed the Day 10 safety assessment. Safety, PK, and imaging feasibility were evaluated in both the Phase 1a and 1b portions of the study. Patient safety is assessed during the study and for up to 10 days post-dose.
Study design: Single Compound 1 IV dose was administered as a 1-5 minute IV infusion to patients in five cohorts (0.1, 0.3, 0.5, 0.8, and 1.2 mg/kg) with three patients per cohort in Phase 1a and 15 patients at a dose of 1.2 mg/kg in Phase 1b. Patient demographic information including tumor types is presented in Table 4 and 5 for Phase 1a and Table 5 for Phase 1b. Intertek Pharmaceutical Services (San Diego, Calif.) determined Compound 1 plasma concentrations using a validated direct fluorescence reader assay. Pacific BioDevelopment (Davis, Calif.) performed the PK analysis.
Sample collection: Blood samples were collected prior to infusion and at 10 minutes and 0.5, 1, 3, 8, 24, 48, 72, and 240 hours after infusion.
Analysis: Plasma concentration versus time profiles were generated for each patient. Pharmacokinetic parameters were estimated using Phoenix WinNonlin (version 8.0). According to SOP, concentrations reported as BQL were set to 0 except for the 0.5 h sample for subject #ON1102, which was set to LLOQ/2 ([…] value used in parameter calculations) and the 24 and 48 h samples.
If the coefficient of determination for the terminal slope estimation was less than 0.8, T1/2 was not reported (NR). AUC extrapolated to infinity is not reported for any data set because in all cases the % extrapolated AUC was greater than 20% and thus the AUCinf estimate would not be reliable. The concentration at 10 minutes, the first time point measured (C10m), was also reported for each patient.
The area under the plasma concentration versus time curves from dosing to the last time point with a measurable concentration (AUClast) was estimated by the linear trapezoid method. The last three or more time points were used to estimate the elimination rate constant (λz) which was used to estimate the terminal-phase half-life (T1/2) and AUC from zero to infinity (AUCINF) from the following equations: […]

[1] = 0.5 mg/kg single IV, individual subject
[2] = 0.8 mg/kg single IV, individual subject
[3] = 1.2 mg/kg single IV, individual subject

## PEO90-140-b-P(DBA60-150-r-ICG0-3-r-AMA0-3) [Compound 1]
[1]
  Cmax: 22700 ng/mL and 17100 ng/mL and 14000 ng/mL
  Tmax: 3.00 h and 0.500 h
0.5 mg/kg single IV, mean
  AUC0-24 hr: 289 µg·h/mL
  AUCall: 835 µg·h/mL
  AUClast: 410 µg·h/mL
  C10 m: 17.3 µg/mL
  Cmax: 17900 ng/mL
  Tmax: 2.17 h
0.5 mg/kg single IV, median
  AUC0-24 hr: 314 µg·h/mL
  AUCall: 314 µg·h/mL
  AUClast: 160 µg·h/mL
  C10 m: 16.2 µg/mL
  Cmax: 17100 ng/mL
  Tmax: 3.00 h
0.500 mg/kg, 0.170 hr, individual subject
  Plasma Conc: 22.0 µg/mL and 16.2 µg/mL and 13.6 µg/mL
0.500 mg/kg, 0.170 hr, mean
  Plasma Conc: 17.3 µg/mL
0.500 mg/kg, 0.500 hr, individual subject
  Plasma Conc: 16.7 µg/mL and 15.9 µg/mL and 14.0 µg/mL
0.500 mg/kg, 0.500 hr, mean
  Plasma Conc: 15.5 µg/mL
0.500 mg/kg, 1.00 hr, individual subject
  Plasma Conc: 15.8 µg/mL and 13.8 µg/mL and 12.6 µg/mL
0.500 mg/kg, 1.00 hr, mean
  Plasma Conc: 14.1 µg/mL
0.500 mg/kg, 3.00 hr, individual subject
  Plasma Conc: 22.7 µg/mL and 17.1 µg/mL and 11.9 µg/mL
0.500 mg/kg, 3.00 hr, mean
  Plasma Conc: 17.2 µg/mL
0.500 mg/kg, 8.00 hr, individual subject
  Plasma Conc: 19.3 µg/mL and 14.6 µg/mL and 13.9 µg/mL
0.500 mg/kg, 8.00 hr, mean
  Plasma Conc: 15.9 µg/mL
0.500 mg/kg, 24.0 hr, individual subject
  Plasma Conc: BQL (BQL (<10 μg/mL), set = 0 for PK analysis) (2×) and 12.4 μg/mL
0.500 mg/kg, 24.0 hr, mean
  Plasma Conc: 4.13 µg/mL
0.500 mg/kg, 48.0 hr, individual subject
  Plasma Conc: BQL (BQL (<10 μg/mL), set = 0 for PK analysis) (2×) and 14.0 μg/mL
0.500 mg/kg, 48.0 hr, mean
  Plasma Conc: 4.67 µg/mL
0.500 mg/kg, 72.0 hr, individual subject
  Plasma Conc: BQL (BQL (<10 μg/mL), set = 0 for PK analysis) (2×) and 12.0 μg/mL
0.500 mg/kg, 72.0 hr, mean
  Plasma Conc: 4.00 µg/mL
0.500 mg/kg, 240 hr, individual subject
  Plasma Conc: BQL (BQL (<10 μg/mL), set = 0 for PK analysis)
0.500 mg/kg, 240 hr, mean
  Plasma Conc: 0.00 µg/mL
0.8 mg/kg
  Mean AUC0-24h: 383 µg·h/mL
  Mean C10: 19.8 µg/mL
  Mean terminal-phase half-life: 79.0 h
[2]
  AUC0-24 hr: 416 µg·h/mL and 354 µg·h/mL and 380 µg·h/mL
  AUCall: 905 µg·h/mL and 518 µg·h/mL and 1790 µg·h/mL
  AUClast: 756 µg·h/mL and 354 µg·h/mL and 927 µg·h/mL
  C10 m: 21.7 µg/mL and 19.6 µg/mL and 18.2 µg/mL
  Cmax: 23000 ng/mL and 19600 ng/mL and 18200 ng/mL
  T1/2: 74.5 h and 83.4 h
  Tmax: 1.00 h and 0.170 h
0.8 mg/kg single IV, mean
  AUC0-24 hr: 383 µg·h/mL
  AUCall: 1070 µg·h/mL
  AUClast: 679 µg·h/mL
  C10 m: 19.8 µg/mL
  Cmax: 20300 ng/mL
  T1/2: 79.0 h
  Tmax: 0.447 h
0.8 mg/kg single IV, median
  AUC0-24 hr: 380 µg·h/mL
  AUCall: 905 µg·h/mL
  AUClast: 756 µg·h/mL
  C10 m: 19.6 µg/mL
  Cmax: 19600 ng/mL
  T1/2: 79.0 h
  Tmax: 0.170 h
0.800 mg/kg, 0.170 hr, individual subject
  Plasma Conc: 21.7 µg/mL and 19.6 µg/mL and 18.2 µg/mL
0.800 mg/kg, 0.170 hr, mean
  Plasma Conc: 19.8 µg/mL
0.800 mg/kg, 0.500 hr, individual subject
  Plasma Conc: 19.3 µg/mL and 17.6 µg/mL and 17.1 µg/mL
0.800 mg/kg, 0.500 hr, mean
  Plasma Conc: 18.0 µg/mL
0.800 mg/kg, 1.00 hr, individual subject
  Plasma Conc: 23.0 µg/mL and 18.2 µg/mL and 18.0 µg/mL
0.800 mg/kg, 1.00 hr, mean
  Plasma Conc: 19.7 µg/mL
0.800 mg/kg, 3.00 hr, individual subject
  Plasma Conc: 20.0 µg/mL and 14.4 µg/mL and 17.6 µg/mL
0.800 mg/kg, 3.00 hr, mean
  Plasma Conc: 17.3 µg/mL
0.800 mg/kg, 8.00 hr, individual subject
  Plasma Conc: 16.7 µg/mL and 15.1 µg/mL and 16.6 µg/mL
0.800 mg/kg, 8.00 hr, mean
  Plasma Conc: 16.1 µg/mL
0.800 mg/kg, 24.0 hr, individual subject
  Plasma Conc: 16.0 μg/mL and 13.7 μg/mL (2×)
0.800 mg/kg, 24.0 hr, mean
  Plasma Conc: 14.5 µg/mL
0.800 mg/kg, 48.0 hr, individual subject
  Plasma Conc: 12.4 μg/mL and BQL (BQL (<10 μg/mL), set = 0 for PK analysis) and 10.8 μg/mL
0.800 mg/kg, 48.0 hr, mean
  Plasma Conc: 7.73 µg/mL
0.800 mg/kg, 72.0 hr, individual subject
  Plasma Conc: BQL (BQL (<10 μg/mL), set = 0 for PK analysis) (2×) and 10.3 μg/mL
0.800 mg/kg, 72.0 hr, mean
  Plasma Conc: 3.43 µg/mL
0.800 mg/kg, 240 hr, individual subject
  Plasma Conc: BQL (BQL (<10 μg/mL), set = 0 for PK analysis)
0.800 mg/kg, 240 hr, mean
  Plasma Conc: 0.00 µg/mL
1.2 mg/kg
  Mean AUC0-24h: 495 µg·h/mL
  Mean C10: 31.7 µg/mL
  Mean terminal-phase half-life: 36.5 h
[3]
  AUC0-24 hr: 348 µg·h/mL and 563 µg·h/mL and 574 µg·h/mL
  AUCall: 348 µg·h/mL and 1160 µg·h/mL and 1020 µg·h/mL
  AUClast: 184 µg·h/mL and 970 µg·h/mL and 891 µg·h/mL
  C10 m: 28.0 µg/mL and 34.1 µg/mL and 33.0 µg/mL
  Cmax: 28000 ng/mL and 34100 ng/mL and 33000 ng/mL
  T1/2: 32.5 h and 46.5 h and 30.6 h
  Tmax: 0.170 h
